Target: PcrV on live P. aeruginosa (type III secretion system of the infecting bacteria) (Pseudomonas aeruginosa)
Assay: cell-based or functional assay

B1: V2L2 anti-PcrV monoclonal antibody (antibody, IgG1, V domains shown)
VH: EMQLLESGGGLVQPGGSLRLSCAASGFTFSSYAMNWVRQAPGEGLEWVSAITISGITAYYTDSVKGRFTISRDNSKNTLYLQMNSLRAGDTAVYYCAKEEFLPGTHYYYGMDVWGQGTTVTVSS
VL: AIQMTQSPSSLSASVGDRVTITCRASQGIRNDLGWYQQKPGKAPKLVIYSASTLQSGVPSRFSGSGSGTDFTLSISSLQPDDFATYYCLQDYNYPWTFGQGTKVEIK
- inhibition of cytotoxicity, IC50 against that of mAb166: 28 fold
- percent inhibition of cytotoxicity (lysis of A549 cells by P. aeruginosa 6077, LDH release), IC50: 0.1 µg/mL
- prevention of RBC lysis, IC50 against that of mAb166: 10 fold
- prevention of lysis of rabbit RBCs by P. aeruginosa 6077, IC50: 0.37 µg/mL
